From publication PMC8269243 come the findings set out here.

The test addresses TYLCV coat protein (CP) in viruliferous whiteflies (tomato yellow leaf curl virus (TYLCV) isolate SH2).

For “Vitellogenin (Vg) of MEAM1 whitefly (Bta07851), endogenous (natural protein)”, the proportion of phase V midguts (TYLCV movement across the midgut, IFA) in Vg antibody-treated whiteflies after a 24-h AAP; control group 55% worked out at 30%; the reduction of the disease incidence rate of tomato plants in the Vg antibody treatment against the control, 15 days (27%) and 30 days (35%) posttransmission is 35%.
